Test results from article PMC5454392, “Selective BET bromodomain inhibition as an antifungal therapeutic strategy” (Nature Communications, 2017).
Where two headings read alike, the source gives them in different places.

Tests used:
CaBdf1 BD1 = biological target: T1, CaBdf1 BD1 (Candida albicans, UniProt Q5A4W8); type: binding; settings: wild-type BD1; for CaBdf1 BD1 Normalized (0 to 100%) WT: normalized array signal; for CaBdf1 BD1 Raw data WT: peptide array signal;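 for CaBdf1 BD1 Normalized (0 to 100%) WT: normalized to spotted c-myc peptide positive control signal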
T1 construct: made in house; host or cells: E. coli BL21(DE3)
T1 sequence (Q5A4W8 whole entry, looked up): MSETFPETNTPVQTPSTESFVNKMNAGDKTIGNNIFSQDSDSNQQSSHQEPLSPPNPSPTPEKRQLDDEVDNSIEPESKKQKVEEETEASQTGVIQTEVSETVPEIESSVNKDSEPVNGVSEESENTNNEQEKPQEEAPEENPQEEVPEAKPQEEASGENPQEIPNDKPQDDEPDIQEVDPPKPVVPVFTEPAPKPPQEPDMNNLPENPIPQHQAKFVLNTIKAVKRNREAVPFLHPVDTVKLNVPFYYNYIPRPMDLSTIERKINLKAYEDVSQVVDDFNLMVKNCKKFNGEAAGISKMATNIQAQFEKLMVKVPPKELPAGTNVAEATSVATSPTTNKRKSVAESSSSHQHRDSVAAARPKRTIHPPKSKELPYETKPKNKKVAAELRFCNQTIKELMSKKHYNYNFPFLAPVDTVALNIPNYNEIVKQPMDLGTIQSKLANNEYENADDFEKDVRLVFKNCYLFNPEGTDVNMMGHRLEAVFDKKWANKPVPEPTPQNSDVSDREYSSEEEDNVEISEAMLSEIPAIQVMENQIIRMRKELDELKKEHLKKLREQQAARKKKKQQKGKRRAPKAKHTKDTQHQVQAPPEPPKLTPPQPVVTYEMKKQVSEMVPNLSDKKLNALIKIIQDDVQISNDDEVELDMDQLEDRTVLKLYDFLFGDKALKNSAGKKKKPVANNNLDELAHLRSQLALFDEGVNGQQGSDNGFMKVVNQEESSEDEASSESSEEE
Description: (§1) In short, arrays were blocked and incubated with 1 μM of purified CaBdf1 BD1 or BD2. Arrays were incubated with recombinant BDs for 2 h at 4 °C in binding buffer (Tris-HCl 50 mM pH 7.4, NP-40 0.1%, NaCl 150 mM, glycerol 10%). […] Assays were performed in duplicate.

CaBdf1 BD2 = biological target: T2, CaBdf1 BD2 (Candida albicans, UniProt Q5A4W8); type: binding; settings: wild-type BD2; for CaBdf1 BD2 Normalized (0 to 100%) WT: normalized array signal; for CaBdf1 BD2 Raw data WT: peptide array signal;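 for CaBdf1 BD2 Normalized (0 to 100%) WT: normalized to spotted c-myc peptide positive control signal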
T2 construct: made in house; host or cells: E. coli BL21(DE3)
T2 sequence (Q5A4W8 whole entry, looked up): T1 sequence (Q5A4W8 whole entry, looked up)
Description: as §1

CaBdf1 BD1 Y248F = biological target: T3, CaBdf1 BD1 Y248F (Candida albicans, UniProt Q5A4W8, Y248F); experiment: Histone peptide microarray binding, YF mutant;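 for CaBdf1 BD1 Normalized (0 to 100%) YF mutant: normalized to spotted c-myc peptide positive control signal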; parameters: species or system C. albicans; settings: YF mutant BD1; for CaBdf1 BD1 Normalized (0 to 100%) YF mutant: normalized array signal; for CaBdf1 BD1 Raw data YF mutant: peptide array signal
T3 construct: made in house; host or cells: E. coli BL21(DE3), inferred from the wild-type GST construct
T3 sequence (Q5A4W8 193-327 Y248F): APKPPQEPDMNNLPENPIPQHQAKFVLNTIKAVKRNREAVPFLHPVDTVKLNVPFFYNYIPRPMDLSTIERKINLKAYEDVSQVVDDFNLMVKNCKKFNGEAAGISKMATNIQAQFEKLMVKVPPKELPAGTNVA
Description: (§2) In short, arrays were blocked and incubated with 1 μM of purified CaBdf1 BD1 or BD2. Arrays were incubated with recombinant BDs for 2 h at 4 °C in binding buffer (Tris-HCl 50 mM pH 7.4, NP-40 0.1%, NaCl 150 mM, glycerol 10%). […] Assays were performed in duplicate. Images were acquired on a Bio-Rad ChemiDoc XRS Imaging machine and data were quantified using the array analyser software provided by Active Motif.

CaBdf1 BD2 Y425F = biological target: T4, CaBdf1 BD2 Y425F (Candida albicans, UniProt Q5A4W8, Y425F); experiment: Histone peptide microarray binding, YF mutant;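 for CaBdf1 BD2 Normalized (0 to 100%) YF mutant: normalized to spotted c-myc peptide positive control signal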; parameters: species or system C. albicans; settings: YF mutant BD2; for CaBdf1 BD2 Normalized (0 to 100%) YF mutant: normalized array signal; for CaBdf1 BD2 Raw data YF mutant: peptide array signal
T4 construct: made in house; host or cells: E. coli BL21(DE3), inferred from the wild-type GST construct
T4 sequence (Q5A4W8 361-501 Y425F): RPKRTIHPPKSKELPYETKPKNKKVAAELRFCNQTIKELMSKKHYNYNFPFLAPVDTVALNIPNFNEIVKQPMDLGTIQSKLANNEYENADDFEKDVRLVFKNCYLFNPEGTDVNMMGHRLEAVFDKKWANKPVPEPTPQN
Description: as §2

Sequence: A Rme2s T Kac Q T A R Kme1 S T G G K A P R K Q
- CaBdf1 BD1 Normalized (0 to 100%) WT (CaBdf1 BD1): 0.798%
- CaBdf1 BD1 Raw data WT (CaBdf1 BD1; first of two raw-data columns): 0.009621
- CaBdf1 BD1 Raw data WT (CaBdf1 BD1): 0.005879
- CaBdf1 BD2 Normalized (0 to 100%) WT (CaBdf1 BD2): 0.333%
- CaBdf1 BD2 Raw data WT (CaBdf1 BD2; first of two raw-data columns): 0.01304
- CaBdf1 BD2 Raw data WT (CaBdf1 BD2): 0.004804
- CaBdf1 BD1 Normalized (0 to 100%) YF mutant (CaBdf1 BD1 Y248F): 0.727%
- CaBdf1 BD1 Raw data YF mutant (CaBdf1 BD1 Y248F; first of two raw-data columns): 0.007202
- CaBdf1 BD1 Raw data YF mutant (CaBdf1 BD1 Y248F): 0.002743
- CaBdf1 BD2 Normalized (0 to 100%) YF mutant (CaBdf1 BD2 Y425F): 0.244%
- CaBdf1 BD2 Raw data YF mutant (CaBdf1 BD2 Y425F; first of two raw-data columns): 0.002427
- CaBdf1 BD2 Raw data YF mutant (CaBdf1 BD2 Y425F): 0.002427

Sequence: A Rme2s T Kac Q T A R Kme3 S T G G K A P R K Q
- CaBdf1 BD1 Normalized (0 to 100%) WT (CaBdf1 BD1): 0.616%
- CaBdf1 BD1 Raw data WT (CaBdf1 BD1; first of two raw-data columns): 0.005879
- CaBdf1 BD1 Raw data WT (CaBdf1 BD1): 0.006948
- CaBdf1 BD2 Normalized (0 to 100%) WT (CaBdf1 BD2): 0.259%
- CaBdf1 BD2 Raw data WT (CaBdf1 BD2; first of two raw-data columns): 0.01579
- CaBdf1 BD2 Raw data WT (CaBdf1 BD2): 0.0006863
- CaBdf1 BD1 Normalized (0 to 100%) YF mutant (CaBdf1 BD1 Y248F): 0.727%
- CaBdf1 BD1 Raw data YF mutant (CaBdf1 BD1 Y248F; first of two raw-data columns): 0.007202
- CaBdf1 BD1 Raw data YF mutant (CaBdf1 BD1 Y248F): 0.004458
- CaBdf1 BD2 Normalized (0 to 100%) YF mutant (CaBdf1 BD2 Y425F): 0.293%

Sequence: A Rme2s T Kac Q T A Rme2s K S T G G K A P R K Q
- CaBdf1 BD1 Normalized (0 to 100%) WT (CaBdf1 BD1): 0.363%
- CaBdf1 BD1 Raw data WT (CaBdf1 BD1; first of two raw-data columns): 0.003741
- CaBdf1 BD1 Raw data WT (CaBdf1 BD1): 0.005345
- CaBdf1 BD2 Normalized (0 to 100%) WT (CaBdf1 BD2): 0.518%
- CaBdf1 BD2 Raw data WT (CaBdf1 BD2): 0.01235
- CaBdf1 BD1 Normalized (0 to 100%) YF mutant (CaBdf1 BD1 Y248F): 0.485%
- CaBdf1 BD1 Raw data YF mutant (CaBdf1 BD1 Y248F; first of two raw-data columns): 0.004801
- CaBdf1 BD1 Raw data YF mutant (CaBdf1 BD1 Y248F): 0.003086
- CaBdf1 BD2 Normalized (0 to 100%) YF mutant (CaBdf1 BD2 Y425F): 0.293%
- CaBdf1 BD2 Raw data YF mutant (CaBdf1 BD2 Y425F): 0.003398

Sequence: A Rme2s T Kme1 Q T A R Kme1 S T G G K A P R K Q
- CaBdf1 BD1 Normalized (0 to 100%) WT (CaBdf1 BD1): 0.29%
- CaBdf1 BD1 Raw data WT (CaBdf1 BD1; first of two raw-data columns): 0.003741
- CaBdf1 BD1 Raw data WT (CaBdf1 BD1): 0.004276
- CaBdf1 BD2 Normalized (0 to 100%) WT (CaBdf1 BD2): 0.518%
- CaBdf1 BD2 Raw data WT (CaBdf1 BD2; first of two raw-data columns): 0.01579
- CaBdf1 BD2 Raw data WT (CaBdf1 BD2): 0.005491
- CaBdf1 BD1 Normalized (0 to 100%) YF mutant (CaBdf1 BD1 Y248F): 0.658%
- CaBdf1 BD1 Raw data YF mutant (CaBdf1 BD1 Y248F; first of two raw-data columns): 0.006516
- CaBdf1 BD1 Raw data YF mutant (CaBdf1 BD1 Y248F): 0.005144
- CaBdf1 BD2 Normalized (0 to 100%) YF mutant (CaBdf1 BD2 Y425F): 0.342%
- CaBdf1 BD2 Raw data YF mutant (CaBdf1 BD2 Y425F; first of two raw-data columns): 0.003398

Sequence: A Rme2s T Kme1 Q T A R Kme3 S T G G K A P R K Q
- CaBdf1 BD1 Normalized (0 to 100%) WT (CaBdf1 BD1): 0.326%
- CaBdf1 BD1 Raw data WT (CaBdf1 BD1; first of two raw-data columns): 0.00481
- CaBdf1 BD1 Raw data WT (CaBdf1 BD1): 0.003741
- CaBdf1 BD2 Normalized (0 to 100%) WT (CaBdf1 BD2): 0.259%
- CaBdf1 BD2 Raw data WT (CaBdf1 BD2; first of two raw-data columns): 0.0151
- CaBdf1 BD2 Raw data WT (CaBdf1 BD2): 0.001373
- CaBdf1 BD1 Normalized (0 to 100%) YF mutant (CaBdf1 BD1 Y248F): 0.727%
- CaBdf1 BD1 Raw data YF mutant (CaBdf1 BD1 Y248F; first of two raw-data columns): 0.007202
- CaBdf1 BD1 Raw data YF mutant (CaBdf1 BD1 Y248F): 0.002743
- CaBdf1 BD2 Normalized (0 to 100%) YF mutant (CaBdf1 BD2 Y425F): 0.195%

Sequence: A Rme2s T Kme1 Q T A Rme2s K S T G G K A P R K Q
- CaBdf1 BD1 Normalized (0 to 100%) WT (CaBdf1 BD1): 0.326%
- CaBdf1 BD1 Raw data WT (CaBdf1 BD1; first of two raw-data columns): 0.004276
- CaBdf1 BD1 Raw data WT (CaBdf1 BD1): 0.004276
- CaBdf1 BD2 Normalized (0 to 100%) WT (CaBdf1 BD2): 0.444%
- CaBdf1 BD2 Raw data WT (CaBdf1 BD2; first of two raw-data columns): 0.006863
- CaBdf1 BD2 Raw data WT (CaBdf1 BD2): 0.01304
- CaBdf1 BD1 Normalized (0 to 100%) YF mutant (CaBdf1 BD1 Y248F): 0.45%
- CaBdf1 BD1 Raw data YF mutant (CaBdf1 BD1 Y248F; first of two raw-data columns): 0.004458
- CaBdf1 BD1 Raw data YF mutant (CaBdf1 BD1 Y248F): 0.01166
- CaBdf1 BD2 Normalized (0 to 100%) YF mutant (CaBdf1 BD2 Y425F): 0.147%
- CaBdf1 BD2 Raw data YF mutant (CaBdf1 BD2 Y425F; first of two raw-data columns): 0.001456
- CaBdf1 BD2 Raw data YF mutant (CaBdf1 BD2 Y425F): 0.001456
